Measurements published in US20230250154A1 (CYTONICS, published 2023).
One block for each binder: values may come before it.

Legend:
Test in all cases: cell-based or functional assay
[1] = target: T1, Cathepsin G (UniProt P08311 21-244)
T1 sequence (looked up): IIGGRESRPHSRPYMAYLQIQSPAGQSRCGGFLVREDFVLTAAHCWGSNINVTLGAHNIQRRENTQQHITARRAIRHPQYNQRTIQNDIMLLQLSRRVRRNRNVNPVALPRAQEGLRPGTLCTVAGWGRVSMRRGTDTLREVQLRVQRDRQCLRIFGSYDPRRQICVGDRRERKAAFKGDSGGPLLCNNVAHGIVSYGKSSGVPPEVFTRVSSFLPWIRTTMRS

[2] = target: Elastase
[3] = target: T2, MMP2 (human, UniProt P08253 110-660, limits assumed)
T2 sequence (looked up): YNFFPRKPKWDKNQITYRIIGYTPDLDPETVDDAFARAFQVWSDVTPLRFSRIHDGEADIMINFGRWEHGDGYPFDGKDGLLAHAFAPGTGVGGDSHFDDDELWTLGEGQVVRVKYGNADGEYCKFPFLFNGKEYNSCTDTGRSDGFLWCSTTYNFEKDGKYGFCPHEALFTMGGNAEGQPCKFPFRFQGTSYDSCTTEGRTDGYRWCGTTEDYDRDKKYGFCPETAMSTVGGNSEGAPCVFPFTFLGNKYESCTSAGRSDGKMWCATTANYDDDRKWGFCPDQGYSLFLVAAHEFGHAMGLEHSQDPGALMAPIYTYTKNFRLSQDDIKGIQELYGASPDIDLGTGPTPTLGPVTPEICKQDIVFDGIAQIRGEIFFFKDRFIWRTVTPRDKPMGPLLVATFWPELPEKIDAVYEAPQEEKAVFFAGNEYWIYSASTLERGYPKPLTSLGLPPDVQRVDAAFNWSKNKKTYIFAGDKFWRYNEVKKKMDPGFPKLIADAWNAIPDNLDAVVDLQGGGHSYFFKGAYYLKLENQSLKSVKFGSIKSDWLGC

[4] = target: T3, MMP1 (human, UniProt P03956 100-469, limits assumed)
T3 sequence (looked up): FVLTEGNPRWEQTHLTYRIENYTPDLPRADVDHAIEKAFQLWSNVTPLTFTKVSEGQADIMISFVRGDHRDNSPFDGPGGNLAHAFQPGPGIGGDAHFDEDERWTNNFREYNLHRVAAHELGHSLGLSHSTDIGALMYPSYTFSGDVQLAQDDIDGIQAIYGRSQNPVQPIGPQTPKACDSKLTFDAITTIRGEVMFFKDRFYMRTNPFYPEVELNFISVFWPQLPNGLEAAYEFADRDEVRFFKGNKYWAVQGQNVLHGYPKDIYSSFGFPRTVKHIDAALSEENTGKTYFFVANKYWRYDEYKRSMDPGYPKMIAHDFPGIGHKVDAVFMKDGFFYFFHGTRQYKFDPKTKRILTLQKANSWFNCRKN

[5] = target: MMP8 (human, UniProt P22894 101-467, limits assumed)
Chain of MMP8 (P22894 101-467 limits assumed): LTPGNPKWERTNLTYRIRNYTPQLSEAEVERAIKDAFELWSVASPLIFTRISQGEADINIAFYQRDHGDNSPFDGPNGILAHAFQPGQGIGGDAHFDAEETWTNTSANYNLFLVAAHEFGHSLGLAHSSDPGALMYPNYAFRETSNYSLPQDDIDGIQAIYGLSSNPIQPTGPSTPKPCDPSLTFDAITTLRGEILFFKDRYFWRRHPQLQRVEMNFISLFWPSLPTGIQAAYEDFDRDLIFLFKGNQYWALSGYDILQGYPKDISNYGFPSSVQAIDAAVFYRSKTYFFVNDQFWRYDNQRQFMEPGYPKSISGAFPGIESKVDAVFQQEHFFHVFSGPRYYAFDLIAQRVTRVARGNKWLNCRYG

Protease Inhibition (% of WT) [1]: 225 % of WT
Protease Inhibition (% of WT) [2]: 100 % of WT
Protease Inhibition (% of WT) [3]: 20 % of WT
Protease Inhibition (% of WT) [4]: 400 % of WT
B1: Variant A2M, bait region SEQ ID NO 128 (other)
chain: SVSGKPQYMVLVPSLLHTETTEKGCVLLSYLNETVTVSASLESVRGNRSLFTDLEAENDVLHCVAFAVPKSSSNEEVMFLTVQVKGPTQEFKKRTTVMVKNEDSLVFVQTDKSIYKPGQTVKFRVVSMDENFHPLNELIPLVYIQDPKGNRIAQWQSFQLEGGLKQFSFPLSSEPFQGSYKVVVQKKSGGRTEHPFTVEEFVLPKFEVQVTVPKIITILEEEMNVSVCGLYTYGKPVPGHVTVSICRKYSDASDCHGEDSQAFCEKFSGQLNSHGCFYQQVKTKVFQLKRKEYEMKLHTEAQIQEEGTVVELTGRQSSEITRTITKLSFVKVDSHFRQGIPFFGQVRLVDGKGVPIPNKVIFIRGNEANYYSNATTDEHGLVQFSINTTNVMGTSLTVRVNYKDRSPCYGYQWVSEEHEEAHHTAYLVFSPSKSFVHLEPMSHELPCGHTQTVQAHYILNGGTLLGLKKLSFYYLIMAKGGIVRTGTHGLLVKQEDMKGHFSISIPVKSDIAPVARLLIYAVLPTGDVIGDSAKYDVENCLANKVDLSFSPSQSLPASHAHLRVTAAPQSVCALRAVDQSVLLMKPDAELSASSVYNLLPEKDLTGFPGPLNDQDDEDCINRHNVYINGITYTPVSSTNEKDMYSFLEDMGLKAFTNSKIRKPKMCPQLEQYEMHGPSELEGRGSEAIPMSIPTKEEEGLGSIPENFFGVVEEPHTKLRKYFPETWIWDLVVVNSAGVAEVGVTVPDTITEWKAGAFCLSEDAGLGISSTASLRAFQPFFVELTMPYSVIRGEAFTLKATVLNYLPKCIRVSVQLEASPAFLAVPVEKEQAPHCICANGRQTVSWAVTPKSLGNVNFTVSAEALESQELCGTEVPSVPEHGRKDTVIKPLLVEPEGLEKETTFNSLLCPSGGEVSEELSLKLPPNVVEESARASVSVLGDILGSAMQNTQNLLQMPYGCGEQNMVLFAPNIYVLDYLNETQQLTPEIKSKAIGYLNTGYQRQLNYKHYDGSYSTFGERYGRNQGNTWLTAFVLKTFAQARAYIFIDEAHITQALIWLSQRQKDNGCFRSSGSLLNNAIKGGVEDEVTLSAYITIALLEIPLTVTHPVVRNALFCLESAWKTAQEGDHGSHVYTKALLAYAFALAGNQDKRKEVLKSLNEEAVKKDNSVHWERPQKPKAPVGHFYEPQAPSAEVEMTSYVLLAYLTAQPAPTSEDLTSATNIVKWITKQQNAQGGFSSTQDTVVALHALSKYGAATFTRTGKAAQVTIQSSGTFSSKFQVDNNNRLLLQQVSLPELPGEYSMKVTGEGCVYLQTSLKYNILPEKEEFPFALGVQTLPQTCDEPKAHTSFQISLSVSYTGSRSASNMAIVDVKMVSGFIPLKPTVKMLERSNHVSRTEVSSNHVLIYLDKVSNQTLSLFFTVLQDVPVRDLKPAIVKVYDYYETDEFAIAEYNAPCSKDLGNADYKDDDDKGASHHHHHH

Protease Inhibition (% of WT) [1]: 250 % of WT
Protease Inhibition (% of WT) [2]: 300 % of WT
Protease Inhibition (% of WT) [4]: 200 % of WT
Protease Inhibition (% of WT) [5]: 200 % of WT
B2: Variant A2M, bait region SEQ ID NO 134 (other)
chain: SVSGKPQYMVLVPSLLHTETTEKGCVLLSYLNETVTVSASLESVRGNRSLFTDLEAENDVLHCVAFAVPKSSSNEEVMFLTVQVKGPTQEFKKRTTVMVKNEDSLVFVQTDKSIYKPGQTVKFRVVSMDENFHPLNELIPLVYIQDPKGNRIAQWQSFQLEGGLKQFSFPLSSEPFQGSYKVVVQKKSGGRTEHPFTVEEFVLPKFEVQVTVPKIITILEEEMNVSVCGLYTYGKPVPGHVTVSICRKYSDASDCHGEDSQAFCEKFSGQLNSHGCFYQQVKTKVFQLKRKEYEMKLHTEAQIQEEGTVVELTGRQSSEITRTITKLSFVKVDSHFRQGIPFFGQVRLVDGKGVPIPNKVIFIRGNEANYYSNATTDEHGLVQFSINTTNVMGTSLTVRVNYKDRSPCYGYQWVSEEHEEAHHTAYLVFSPSKSFVHLEPMSHELPCGHTQTVQAHYILNGGTLLGLKKLSFYYLIMAKGGIVRTGTHGLLVKQEDMKGHFSISIPVKSDIAPVARLLIYAVLPTGDVIGDSAKYDVENCLANKVDLSFSPSQSLPASHAHLRVTAAPQSVCALRAVDQSVLLMKPDAELSASSVYNLLPEKDLTGFPGPLNDQDDEDCINRHNVYINGITYTPVSSTNEKDMYSFLEDMGLKAFTNSKIRKPKMCPQLEQYEMHGPSELEGRGSIPENFFGVKEEEGLGSSEDLVVQIVEEPHTKLRKYFPETWIWDLVVVNSAGVAEVGVTVPDTITEWKAGAFCLSEDAGLGISSTASLRAFQPFFVELTMPYSVIRGEAFTLKATVLNYLPKCIRVSVQLEASPAFLAVPVEKEQAPHCICANGRQTVSWAVTPKSLGNVNFTVSAEALESQELCGTEVPSVPEHGRKDTVIKPLLVEPEGLEKETTFNSLLCPSGGEVSEELSLKLPPNVVEESARASVSVLGDILGSAMQNTQNLLQMPYGCGEQNMVLFAPNIYVLDYLNETQQLTPEIKSKAIGYLNTGYQRQLNYKHYDGSYSTFGERYGRNQGNTWLTAFVLKTFAQARAYIFIDEAHITQALIWLSQRQKDNGCFRSSGSLLNNAIKGGVEDEVTLSAYITIALLEIPLTVTHPVVRNALFCLESAWKTAQEGDHGSHVYTKALLAYAFALAGNQDKRKEVLKSLNEEAVKKDNSVHWERPQKPKAPVGHFYEPQAPSAEVEMTSYVLLAYLTAQPAPTSEDLTSATNIVKWITKQQNAQGGFSSTQDTVVALHALSKYGAATFTRTGKAAQVTIQSSGTFSSKFQVDNNNRLLLQQVSLPELPGEYSMKVTGEGCVYLQTSLKYNILPEKEEFPFALGVQTLPQTCDEPKAHTSFQISLSVSYTGSRSASNMAIVDVKMVSGFIPLKPTVKMLERSNHVSRTEVSSNHVLIYLDKVSNQTLSLFFTVLQDVPVRDLKPAIVKVYDYYETDEFAIAEYNAPCSKDLGNADYKDDDDKGASHHHHHH
